For assay [1], the target named is TGFβR2(-1) peptide … presented on HLA-DRA/HLA-DRB1*04:01 (human). The assay is described as follows: cell-based or functional assay.
Assay [2] addresses T1, TGFβR2(-1) frameshift variant (deletion of one adenine in the 10-adenine microsatellite) peptide on … (human).
T1 peptide: VALMSAMTTSSSQKN
The assay is described as follows: IFNγ ELISA after 16 h; transduced human CD4+ T cells with BSM cells pulsed with decreasing amounts of peptide; lower bound of the printed range; full-length, on cells. (In general: ELISA stands for enzyme-linked immunosorbent assay.)

Assay [3] deals with T1, TGFβR2(-1) frameshift variant (deletion …). The assay is described as follows: IFNγ ELISA after 16 h; transduced human CD4+ T cells with BSM cells pulsed with decreasing amounts of peptide; upper bound of the printed range; full-length, on cells.

A value given as a limit tells only on which side of the number the result lay.

B1: TCR1414_1 (TCR, V domains shown)
Valpha: KQEVTQIPAALSVPEGENLVLNCSFTDSAIYNLQWFRQDPGKGLTSLLLIQSSQREQTSGRLNASLDKSSGRSTLYIAASQPGDSATYLCAVKSGAGSYQLTFGKGTKLSVIP
Vbeta: NAGVMQNPRHLVRRRGQEARLRCSPMKGHSHVYWYRQLPEEGLKFMVYLQKENIIDESGMPKERFSAEFPKEGPSILRIQQVVRGDSAAYFCASSPFQETQYFGPGTRLLVL
Turning to B1, the lowest peptide concentration recognized (IFNy ELISA, BSM cells loaded with different concentrations of peptide) in assay [1] came out at 1 nM. Besides, the results for the EC50 of peptide in assay [2] and in assay [3] were greater than 1 nM and less than 10 nM, respectively.

B2: TCR1414_2 (TCR, V domains shown)
Valpha: GIQVEQSPPDLILQEGANSTLRCNFSDSVNNLQWFHQNPWGQLINLFYIPSGTKQNGRLSATTVATERYSLLYISSSQTTDSGVYFCAAPSGNTPLVFGKGTRLSVIA
Vbeta: DVKVTQSSRYLVKRTGEKVFLECVQDMDHENMFWYRQDPGLGLRLIYFSYDVKMKEKGDIPEGYSVSREKKERFSLILESASTNQTSMYLCASRVSGANVLTFGAGSRLTVL
B2: in assay [1], the lowest peptide concentration recognized (IFNy ELISA, BSM cells loaded with different concentrations of peptide) was 1 nM. Besides, the EC50 of peptide in assay [2] was greater than 1 nM; in assay [3], less than 10 nM.
